According to paper PMC7506991, “Timeless couples G‐quadruplex detection with processing by DDX11 helicase during DNA replication”:
Changes are numbered by the printed parent chain.

Key:
[1] = target: T1, Timeless (optimised construct);Tipin (Homo sapiens;Homo sapiens, UniProt Q9UNS1;Q9BVW5 1-238+=GSTGST+331-1208;1-301, internal_change|); experiment: fluorescence anisotropy; 150 mM KCl, 5 mM MgCl2; FA at 25 C, 10 nM DNA: DBD in 25 mM HEPES-NaOH pH 7.2, 150 mM KCl, 0.5 mM EDTA, 0.005% Tween-20; Timeless-Tipin in 25 mM HEPES pH 7.1, 150 mM KCl, 1 mM DTT, 5 mM MgCl2; EMSA in 25 mM HEPES pH 7.1, 150 mM KCl, 5 mM MgCl2, 1 mM DTT on ice, 1% agarose at 4 C; details: protein: recombinant;recombinant, tags: His14-SUMO removed;His6-GST removed, copies: 1;1, label: 5' 6FAM
[2] = target: T1, Timeless (optimised construct);Tipin; experiment: EMSA; 5 uM protein, 5 uM DNA; FA at 25 C, 10 nM DNA: DBD in 25 mM HEPES-NaOH pH 7.2, 150 mM KCl, 0.5 mM EDTA, 0.005% Tween-20; Timeless-Tipin in 25 mM HEPES pH 7.1, 150 mM KCl, 1 mM DTT, 5 mM MgCl2; EMSA in 25 mM HEPES pH 7.1, 150 mM KCl, 5 mM MgCl2, 1 mM DTT on ice, 1% agarose at 4 C; details: protein: recombinant;recombinant, tags: His14-SUMO removed;His6-GST removed, copies: 1;1, label: 5' 6FAM
Timeless DBD = Timeless DBD (Homo sapiens, UniProt Q9UNS1 816-954); experiment: fluorescence anisotropy; 150 mM KCl; FA at 25 C, 10 nM DNA: DBD in 25 mM HEPES-NaOH pH 7.2, 150 mM KCl, 0.5 mM EDTA, 0.005% Tween-20; Timeless-Tipin in 25 mM HEPES pH 7.1, 150 mM KCl, 1 mM DTT, 5 mM MgCl2; EMSA in 25 mM HEPES pH 7.1, 150 mM KCl, 5 mM MgCl2, 1 mM DTT on ice, 1% agarose at 4 C; details: protein: recombinant, tags: His14-SUMO removed
[3] = G4 intramolecular with ssDNA flanks

T1 sequence (Q9UNS1 other isoform, or with tags, fused parts or gaps |, chain 1 of 2): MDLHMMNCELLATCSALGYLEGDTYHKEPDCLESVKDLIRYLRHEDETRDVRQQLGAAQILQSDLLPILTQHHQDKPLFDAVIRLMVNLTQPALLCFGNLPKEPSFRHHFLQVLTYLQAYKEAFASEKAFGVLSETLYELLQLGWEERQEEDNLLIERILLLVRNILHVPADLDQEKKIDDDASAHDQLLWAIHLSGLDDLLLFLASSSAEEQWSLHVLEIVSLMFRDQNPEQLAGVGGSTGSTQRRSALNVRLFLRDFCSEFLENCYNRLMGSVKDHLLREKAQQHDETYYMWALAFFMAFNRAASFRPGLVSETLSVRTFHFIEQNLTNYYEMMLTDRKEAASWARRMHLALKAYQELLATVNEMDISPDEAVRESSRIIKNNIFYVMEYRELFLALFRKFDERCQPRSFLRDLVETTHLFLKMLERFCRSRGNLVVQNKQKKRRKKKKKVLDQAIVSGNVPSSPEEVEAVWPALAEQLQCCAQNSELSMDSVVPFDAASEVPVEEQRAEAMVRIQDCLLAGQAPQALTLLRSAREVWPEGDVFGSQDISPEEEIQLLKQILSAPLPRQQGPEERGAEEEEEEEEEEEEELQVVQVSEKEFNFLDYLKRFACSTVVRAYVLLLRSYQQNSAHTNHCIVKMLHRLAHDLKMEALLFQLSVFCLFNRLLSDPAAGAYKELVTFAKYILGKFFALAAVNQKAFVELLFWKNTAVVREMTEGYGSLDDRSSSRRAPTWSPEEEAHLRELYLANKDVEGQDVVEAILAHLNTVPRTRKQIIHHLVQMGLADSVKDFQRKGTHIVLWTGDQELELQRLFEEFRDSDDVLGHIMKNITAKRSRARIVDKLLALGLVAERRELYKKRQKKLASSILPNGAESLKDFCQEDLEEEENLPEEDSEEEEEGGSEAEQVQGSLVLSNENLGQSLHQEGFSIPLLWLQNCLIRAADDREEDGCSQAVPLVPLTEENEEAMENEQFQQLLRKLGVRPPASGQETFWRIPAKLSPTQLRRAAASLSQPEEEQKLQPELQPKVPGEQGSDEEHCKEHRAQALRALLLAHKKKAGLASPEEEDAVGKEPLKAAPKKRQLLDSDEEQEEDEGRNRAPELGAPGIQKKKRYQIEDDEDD
T1 sequence (Q9BVW5 whole entry, change not shown, chain 2 of 2): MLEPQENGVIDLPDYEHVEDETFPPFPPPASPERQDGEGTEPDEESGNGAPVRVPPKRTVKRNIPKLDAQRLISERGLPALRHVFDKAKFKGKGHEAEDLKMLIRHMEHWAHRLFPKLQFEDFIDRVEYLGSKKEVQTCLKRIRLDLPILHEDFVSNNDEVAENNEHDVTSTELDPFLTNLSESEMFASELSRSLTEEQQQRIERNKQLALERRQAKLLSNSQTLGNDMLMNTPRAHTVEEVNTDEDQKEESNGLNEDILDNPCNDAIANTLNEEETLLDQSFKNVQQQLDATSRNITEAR
Chain of Timeless DBD (Q9UNS1 816-954): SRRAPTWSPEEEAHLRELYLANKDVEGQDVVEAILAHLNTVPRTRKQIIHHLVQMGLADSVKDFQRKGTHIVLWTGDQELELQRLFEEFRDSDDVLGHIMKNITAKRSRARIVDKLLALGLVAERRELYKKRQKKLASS

B1: ds20 (dsDNA)
DNA 1: ATAAGAGTGGTTAGAGTGTA
DNA 2: TACACTCTAACCACTCTTAT
- binding result ([1]; blunt): no binding

B2: ssG4 (structured_DNA)
DNA: ACGAGAGCTAGCACATTTTGAGGGTGGGTAGGGTGGGTAATTTTCACGTAGAACCTGT
- Kd [1, 3]: 600 ± 30 nM

B3: ss (ssDNA)
DNA: B2 DNA with G23T, G26C, G27A, G32C, G35C, G36T
- binding result ([2]; single strand): no binding

B4: BU1 +3.5 (structured_DNA)
DNA: AGCTAGCACATTTTAAGGGCTGGGTGGGTGCTGTCAAGGGCTGGGTTTTCACGTAGAA
- binding result [2, 3]: binds

B5: dsDNA (Fig 2D) (dsDNA)
DNA 1: TGAGAGTGAGTAGAGTGAGTAA
DNA 2: TTACTCACTCTACTCACTCTCA
- Kd (Timeless DBD; blunt): ~800 nM

Binder: TGAGAGTGAGTAGAGTGAGTAA (ssDNA) [ssDNA (Fig 2D)]
- binding result (Timeless DBD; single strand): binds

B6: ssHP (structured_DNA)
DNA: ACGAGAGCTAGCACATTTTGAGGCTGCGTTTCGCAGCCTCAATTTCACGTAGAACCTGT
- binding result ([2]; hairpin with ssDNA flanks): no binding

Binder: TGAGGGTGGGTAGGGTGGGTAA (structured_DNA) [G4 DNA (MYC, 1XAV) Cy3]
- Kd (Timeless DBD; label: 3' Cy3, G4 intramolecular): ~120 nM

Binder: ATAAGAGTGGTTAGAGTGTA (ssDNA) [ss20]
- binding result ([1]; single strand): no binding

Binder: TGAGGGTGGGTAGGGTGGGTAA (structured_DNA) [1XAV]
- binding result ([1]; G4 intramolecular): binds
